Test system: Saccharomyces cerevisiae
Test: transcriptional activation domain activity (GFP:mCherry ratio, weighted mean of sorted bins, harmonized to initial dataset scale) (arbitrary fluorescence ratio units); higher = stronger transcriptional activation
Details: beta-estradiol 1 µM; induction time 4 h
How it was run: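 Barcoded protein tiles fused to an estradiol-inducible synthetic transcription factor were integrated at the yeast URA3 locus, in diploids carrying a GFP reporter. Cultures were diluted 1:5 into SC with 1 uM beta-estradiol, held 4 hours at 30 °C, sorted into 8 bins by GFP:mCherry ratio, and barcodes sequenced. Tiles under 50 reads were discarded. Activation activity is the read-weighted mean of bin median fluorescence, averaged across barcodes, then linearly mapped onto the initial dataset scale.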

PAAAAQAPPAAGGKKEEAAAAEVPQAEAAAEGAGSPEGEGKDAQAEAAAPAEG
transcriptional activation domain activity: 16800

KVDNGGKVDNSGKVDNGRKVDSRKIDDGRKVDDGRNVDNRGRVDEGGGVVKGG
transcriptional activation domain activity: 19500

IGVLHQVFFYKNLIWTFALLLFQIFCESNATYLFDYSLVLLFNLIFTSLPVIM
transcriptional activation domain activity: 53200

EEKDTKGGPATTSKAVVKGSKSAADKKKLVKGDAKGKVPENGKRDKSEEKDEK
transcriptional activation domain activity: 21800

FIVLYLSHRQLIIVNPCYLLGHHACSLLCLLILHNFHIWLSYVGTVLFCFCFS
transcriptional activation domain activity: 78400

MSSNFFGASNNAGQGSGTGASAPLFGAPKPADGGAAPAVGGLFGAKPAASGTG
transcriptional activation domain activity: 27300

SQPSDTIRKRTAGDDGALDQTENTSISPKKRRTEDHTKGEEDEGERGVGNSGT
transcriptional activation domain activity: 22200

SFGDLVSVGPRQYYRPTHSLTIISICEEDNNLPASLVKRFNMLMALLVILTNT
transcriptional activation domain activity: 41300

LSIFSWMSWIAPESLNLSTITGFNNGLGINPWPTWDWNTLLFDAADPLMIPFF
transcriptional activation domain activity: 39700

LSFRFLDYTSLTHCVDYRNPALAFNILVTCLLFLILRPKPLVLYWCLVCIGFW
transcriptional activation domain activity: 44700

LSIPLYGLGGPAFSDDDEGEDLIPEHERYIQEAIDGYWVLVLRILVSNRPRKT
transcriptional activation domain activity: 43800

TTLVNTTAPYFPYSFSALEGSTFNGFSFDQTMFDLFLEVWEQTDPLMNYLFDF
transcriptional activation domain activity: 162000

MVFFTSSFLLGFFSFVSFRNHCSFFLMAPFLTGSELFLFFVLLFILFFFFGFG
transcriptional activation domain activity: 48800

VIITLICRYEMHSTRLRLRGMSILSFLVNYTGRSMCNIKTTGFLDMIFALRQV
transcriptional activation domain activity: 47100

MFCLRSWIPILFFLLRTNASPVYLILFLSATYFLNRPCVYCSFLLLILVIALF
transcriptional activation domain activity: 59500

MPFYMPSKGLAIKDFVGQIALIIKVYVNPITLVSISYHYYMFFLSLNCLWLFL
transcriptional activation domain activity: 65100

ASDYAIGQFRYLKRLILVHGEWSYARNANMIVNFFYKNILGIGVLWWFQIYCG
transcriptional activation domain activity: 39100

EKAGEEEKAGEEEKAAEEEKSAEEEKAAKEEEMKAMEKSKAEKEASSEEPKAE
transcriptional activation domain activity: 35700

FVLDTFLWYIIWNTDIYTRLPKRIYAKILATADMEVKYKPKVLVSQIWNAVLI
transcriptional activation domain activity: 14000

DREKRSSGHRNGRRHRGHRSGRKQRRSRSRSRGDRPDSPVRAKEGEGGAKDRK
transcriptional activation domain activity: < 6570

SGRTATSAKSHNIISGYREEVEQANLNLSLIDSQVVLLRAWKLLAMELCPFAF
transcriptional activation domain activity: 55900

MMSGGMAYQVLFLYLLGYRLFYPRYFLFHSMFLFFIYCYMRCCPFRFTTILID
transcriptional activation domain activity: 58000

TGYKKKKLGHPSEKVVERHASCEPGTRLYSQKLFGRYVLRLLFVVAYMFVKSF
transcriptional activation domain activity: 34800

MPGTCTLPYYSNLPIMLVLVLIRRSNYFFFLVSLTTGSFLTTFFSLFSVRLPL
transcriptional activation domain activity: 67000

GEVTEAEANGEAPKPEGEAAAEASPKPRKKKSPRKKKAAAPAEGEAAATEATA
transcriptional activation domain activity: 19600

IMYIICLTIAPSFLCGVLYVSLSRFIAALGHQYSLVPPWLISWVFIFGDFLSL
transcriptional activation domain activity: 62600

KNASFNDADLLSSSYWIKAYNDHLFSVSESDETSPMNSELNDTKLIVPDFKST
transcriptional activation domain activity: 69100

MMAPSCSICLPLVLPPLLCQIFSPLILSLFPYPLHCLCMLFFQLIYMPLFFFF
transcriptional activation domain activity: 68200

KADDEKPKKAARGAKAKKEEDEDEEADEEQEEPKKPARKPRAKAEPKKAPAKS
transcriptional activation domain activity: 23100

VGTVMFGLACASSTQVLLSLIGGWNVGFFISLLAVTIFAVLTKIIPWVWYIYS
transcriptional activation domain activity: 58300

MPFSVSASNILLSPFHLIFWSIRNFSNILIFLFSPFFLVLYYASYVFTPIFIP
transcriptional activation domain activity: 96500

STARICQMYHWTGNVAIWTHCAILMHPHTIVLWHIWRWDSSWSQASYYFIFWI
transcriptional activation domain activity: 37000

MYFVYTYSGLAFFFFFSFFWCTSIYLNILLVLFYLALGFCKVYFLLLFYLPKT
transcriptional activation domain activity: 39900

TRTVLFSRGACVILFPWLMYAVGLLLHMIIVNYRLYILYWLLVLKRPIGGFKF
transcriptional activation domain activity: 57500

GSEDESEGSEDESSEDEEDEEKALDKKMEIQDQTNTNLVNLRKTIYLTIMSSI
transcriptional activation domain activity: 43400

TTAATEPTKTEAAPPAPATEPAPAAEPAAPAAEPAKEEAKPATEVKPEAPAAA
transcriptional activation domain activity: 24800

TGSTIVRGVLHVFSDQKVNLEQISFGQLNKMIGLLGERRDYRTLSWLLTILWN
transcriptional activation domain activity: 73300

SASPDESRRSSHRSRRDRDYEKRRDRGEERDSDHDHRRKSHSHRDRERDRGRD
transcriptional activation domain activity: 30000

EYAEWLLQPEQNNGTWVADVLWPAIDLDLEWIALNWNQSSWDLWWPPVWAGSF
transcriptional activation domain activity: 107000

GDADVDGNGHGTHCSGTIAGKKYGVSKKAKIYAVKVLRSNGSGTMADVVAGVE
transcriptional activation domain activity: 59400

MSLWISILHTTFLVGYHSIILSLSSPYHYCYLSFLFPIYPFLLGLFVFSLLSS
transcriptional activation domain activity: 56600

ADEEGEGEAEEKPKRKRATKKKVEEEDDEEEEEEEKPKPKARAKAGSSKKAAT
transcriptional activation domain activity: 21100

MVMYHWGMRCVFLYTNYIIFGFGFVFSFLFSFFFFFFPFTCIFFFLFYLIFIF
transcriptional activation domain activity: 58900

PIYNLHFAPSNEYWFSFSYLPGQGQCTLDSSTTSIGQTRYFIWSLSLWRRIFL
transcriptional activation domain activity: 70200

TMDKQIKYFWSSPCKFISLIYFANRYIGILEAISEIARLGFIWLQNLADILLM
transcriptional activation domain activity: 43800

PPASTHTSVTSSPPVNDQWKDYALVLVRLMPMDKLSKPSFRYIIKSTYVRAVC
transcriptional activation domain activity: 58000

KYAYGCDELIFNPLVHWWKMGPINKQLRTFVWSDAPVHYKVTMLSYMFSYYGI
transcriptional activation domain activity: 50100

SLGCLVKQAEYQVDGRSIGMDGYLFFFFFACCCFLYTSGLSFLYLFWFFFLVF
transcriptional activation domain activity: 22900

MFGFIVVLLFSLPFFFTSSTTLSSFYFSFTFLVHFFLSYSLNVFLSFFVWFFF
transcriptional activation domain activity: 58100

EREREKREEREREAARLRREAEEREREEHEGRKREKREEPEEREAEEREREVE
transcriptional activation domain activity: 33200

LLGLYMKMRFRTQEDFWRQIAILLRDLFVPDLQAETVVFFMRLLYNSNSMYKH
transcriptional activation domain activity: 24100

LFGCVVSNVNGSSYLGLVYVIFMLYEGGLLLAMIKWRISTWIIYYICAFCLSL
transcriptional activation domain activity: 59600

FFHVTIRVASQGCGIGFAILGFGNLGLFLAFLILGAEGYFSLVLCTFRFVISW
transcriptional activation domain activity: 78100

VLEQLNLINHFYQFSLKFFLDIFEYVLRQNPNLQNVTDHHARREILFNDIFLV
transcriptional activation domain activity: 33600

TWILNIPWPQTHMVAVLSLAGFLYFLILDIYEYMCYSYLVLLGTMWFVDIMFF
transcriptional activation domain activity: 73600

RLGQCVKRYFDSKQVTHLVNAGKYGTGVVSYLFYFMWSYREESRGANFALWCF
transcriptional activation domain activity: 79300

TEVQNYPHALDLITDNLDDDFQDELRGSLDVQARLLYGLIHARWIVTARGLSK
transcriptional activation domain activity: 40200

MFCLRSWLPLLFIPTSASPVFIFLFFVCTYFLNRPCVYCSFLLLILFLTSCNW
transcriptional activation domain activity: 30800

MVIWRDTLLITLHGLCGGILLRFPSAVNLFHCFIDINSPIGITILTLFVLHLC
transcriptional activation domain activity: 70200

MEACMSIMMIPMILRNGTVFSFFFRVMLYFTCIVSMAGWLVPGSYWLWFGLVC
transcriptional activation domain activity: 48100

TNPAAAVAAAVAAKKTDTEEETTPKEDKAEEAKPEEEKKEEKKEEKAAAKSRS
transcriptional activation domain activity: 33900

GVEKTAEKPSEEPAEEAPEKKAEPTTEEPEPEAAKPKARGGRPKKVIAAPKED
transcriptional activation domain activity: 38300

MLISLLVRLGLDIFMHLYMLLLHISQFSDLLHTRSFLLILFLISGASKRLFFF
transcriptional activation domain activity: 51900

MFLPFSLSINHLPSLLLQPFILSLILLLFFLCLLHRLFPFLLQFFPFLFQFLS
transcriptional activation domain activity: 50100

LESTHSLLALLNFIAFLCDGRFRTIADRLLNVRLIPSRRLVKRDVSYEFMNRQ
transcriptional activation domain activity: 46300

MYNMLVCLAIEFLWQHLYFFLFLYLTLCCDTFQLILYTPLSMFLFFIFILLKK
transcriptional activation domain activity: 16500

GPRDVFGIRSAWKLPLSVAYWLLVCLARRKDFGSLRAVTVGHITWNQYMVGER
transcriptional activation domain activity: 58600

SLDHTSLWIRRSVLSFSIEQIKKVFFQLFSTWYIFIFQLPYFPEWLWKNKTYP
transcriptional activation domain activity: 49100

DINSFTNQQQQAQDNPSFLPLDIEQSSYDLSEDAMSYPIISTQSNRDCTQYDN
transcriptional activation domain activity: 68700

SSPNTGGGLFGSGGTTSAFGANTTSGFGSTSNTGAFGAKTGAFGATTSAGGGL
transcriptional activation domain activity: 35800

RVPWSSAISKRLQTYHEMLQSFPFVWRMIKDVLGLKSCRYLLVLYLFCEAVTS
transcriptional activation domain activity: 62000

LFHSVVSIYRLLFFFSVDHSAGVRFFFCFLFLPSLIFCIAFPISIISGFLVFF
transcriptional activation domain activity: 49600

SDESTKADSGNKDNPGGAEKSGDEKEKEKDGGTSRMRSRKGKFRKNKAEDIEK
transcriptional activation domain activity: 30400

CPFLKCTVYLRTIKHYLFVLVFLPLDALFSIALSCYALSYARVLVVPLALSIF
transcriptional activation domain activity: 53700

— the supplement of paper PMC12636428
